{"source": "patent US20240189443A1", "about": "“PD-L1 AND TLR7 DOUBLE-TARGETING NANOBODY COUPLING DRUG AND USE THEREOF IN ANTI-TUMOR” (SHANGHAI INSTITUTE OF MATERIA MEDICA, CHINESE ACADEMY OF …, priority 2021, published 2024)", "key": {"[1]": {"test_system": "CD4+T cells, CD8+T cells, NK cells, macrophages", "assay": "Immune cell deletion analysis of conjugate efficacy", "type": "in vivo, Balb/c mice", "source_text": "Balb/c mice were randomized into 6 groups of 6 mouse each. Corresponding groups are: MFC group, Nb16-SZU-101 group, Nb16-SZU-101+anti-CD4 group, Nb16-SZU-101+anti-CD8 group, Nb16-SZU-101+anti-NK1.1 group, Nb16-SZU-101+chlorophosphate liposome group. The administration of the mFc and Nb16-SZU-101 was consistent with example 8.1.\nThe immune cell deletion method comprised: deleting corresponding immune cells (CD4+T cells, CD8+T cells, NK cells) by intraperitoneal injection of antibody drugs (anti-CD4, anti-CD8, anti-NK1.1) respectively in Day 3 (200 ug/one)/Day 4 (100 ug/one)/Day 5 (100 ug/one), or intraperitoneal injection of chlorophosphate-liposomes to remove macrophages.\nOn Day 14 the mice would be euthanized."}, "[2]": {"test_system": "tumor immune microenvironment (CT26 subcutaneous tumors)", "assay": "Tumor immunotyping analysis by flow cytometry after conjugate administration", "type": "in vivo, BALB/c mouse", "settings": "compared to mFc group", "protocol": "At a mouse anatomical endpoint of example 8.1, subcutaneous tumors were taken, 150 mg of tumor tissue was taken and cut into meat paste, and the meat paste was oscillated and digested at 180 rpm for 1.5 h at 37° C. in hyaluronidase and collagenase IV, and processed into a single cell suspension. The pretreated cell suspension was divided into two parts, one part was used for immunotyping analysis of macrophages and dendritic cells, and one part was used for immune typing analysis of T cells and NK cells.\nThe suspension treatment of macrophages and dendritic cell samples: the cells were treated with 2-4 mL sterile red blood cell lysis solution for 8 min and terminated with PBS buffer solution to remove red blood cells and fragments in the sample suspension; the cell sample was cleaned for use.\nT cell and NK cell sample suspension treatment: the cells were centrifuged with lymphocyte separation liquid to obtain a lymphocyte separation layer, that is, the lymphocyte separation layer was a tumor lymphocyte suspension, and wascleaned for use.\nThe macrophages and dendritic cell samples and T cells and NK cell samples were sealed at 4° C. with an Fc receptor confining liquid for 1 hour, and non-specific staining caused by the Fc receptor was removed; cell surface protein staining is performed, specifically: M1 macrophages (FITC Rat Anti-Mouse CD45, PE-Cyanine7 Rat Anti-Mouse F4/80 and APC Rat anti-Mouse CD86), M2 macrophages (FITC RATw Anti-Mouse CD45 and PE-Cynine 7 RAT Anti-Mouse F4/80), dendritic cells (PE-Cy7 Anti-Mouse CD11c, BB515 Rat Anti-Mouse I-A/I-E, PE Hamster Anti-Mouse CD80, and APC Rat anti-Mouse CD86), CD4+T cells and CD8+T cells (FITC Hamster Anti-Mouse CD3e, PerCP-Cy™ 5.5 Rat Anti-Mouse CD4 and APC Rat Anti-Mouse CD8a), Treg cells (FITC Hamster Anti-Mouse CD3e, PerCP-CYy™ 5.5 Rat Anti-Mouse CD4 and PE Rat Anti-Mouse CD25), NK cells (CD3-FITC, CD49b-APC, CD69-PE), followed by dyeing on ice for 20 min.; then intracellular protein staining is performed, and after the cell is subjected to a fixed membrane rupture treatment, the cell is subjected to membrane rupture dyeing, specifically: M2 macrophages (MS CD206 Alexa 647 and ANTI-MOUSE LAP PE), functional T cells(ANTI-MOUSE GRANZYME B (NGZB) PE) containing granzyme, functional T cells (PE Rat Anti-Mouse IFN-γ) containing IFN-γ, Treg cells (ANTI-MOUSE/RAT FOXP3 APC), and then stained for 20 min on ice; after cleaning, re-suspending the sample cell sap, and performing on-machine detection on the flow cytometer."}, "B16-F10 cells": {"test_system": "B16-F10 cells", "assay": "Uninduced B16-F10 subcutaneous tumor-bearing model with low expression PD-L1", "type": "in vivo, C57BL/6 mouse", "settings": "10 mg/kg intraperitoneal", "protocol": "The 6 to 8-week-old C57BL 6 mice were randomly divided into two groups, which were respectively as an mFc group and a nanobody-coupled drug NB 16-SZU-101 group. 1×10^6 B16-F10 cells (FIG. 9A) of 1×10^6 non-induced low-expression PD-L1 were planted under the underarm skin of mice (FIG. 9A). Administration was performed by using mFc and nanobody coupled drug Nb16-SZU-101, respectively; the administration dosage of the control drug and Nb16-SZU-101 was 10 mg/kg, and the volume is 200 μL; each group of drug delivery manners was intraperitoneal injection. Each group was administered at 2th, 5th, 8th and 11th days after tumor implantation, respectively, and the drug was administered for […]. On Day 12 mice would be euthanized."}, "[3]": {"test_system": "IFN-γ-induced high-expression PD-L1 CT26", "assay": "IFN-γ-induced high-expression PD-L1 CT26 subcutaneous tumor-bearing model, conjugate vs combined administration", "type": "in vivo, BALB/c mouse", "settings": "Nb16 or Nb16-SZU-101 10 mg/kg, SZU-101 0.5 mg/kg, intraperitoneal", "protocol": "In an IFN-γ-induced high-expression PD-L1 CT26 subcutaneous tumor-bearing BALB/c mouse model, mice were randomly divided into four groups, namely an mFc group, an Nb16 group, an Nb16/SZU-101 combined administration group and an NB16-SZU-101 nanobody conjugate drug group, wherein the administration dosage of the mFc or Nb 16 or Nb16-SZU-101 was 10 mg/kg, the administration mode was intraperitoneal administration, the administration dosage of the SZU-101 was 0.5 mg/kg, and the administration mode was intraperitoneal administration; the drug was administered on Day 2, Day 6, Day 10 and Day 13 for a total of 4 times. Tumor sizes were measured 2-3 times per week, and tumor growth curves were drawn; and anatomical weighing and photographing were performed on mice at Day 14."}, "[4]": {"test_system": "uninduced CT26 tumor cell", "assay": "Late CT26 subcutaneous tumor-bearing model (tumor volume>200 mm^3)", "type": "in vivo, BALB/c mouse", "protocol": "The uninduced CT26 tumor cell subcutaneous was inoculated into a female BALB/C mouse to construct a tumor-bearing mouse model in the two models, and the inoculation amount was 1×10^6 cells/; the mice were divided into two groups, and each group was 8 mice, that is, a blank control group mFc (the concentration was 10 mg/kg), and a coupling compound Nb16-SZU-101 group (the concentration was 10 mg/kg); and the administration dosage was 200 μL, and the administration manner was an abdominal administration. In the early model (the tumor volume was<50 mm^3), the drug was administered in Day 4, Day 7, Day 10, Day 13, Day 16, and the drug was administered for 5 times; in the late model (the tumor volume was greater than 200 mm^3), the drug was administered in Day 9, Day 12, Day 15, Day 17, and the drug was administered for 4 times. The tumor size was measured 2-3 times a week, and a tumor growth curve was drawn."}}, "note": "Several values for one entry are separate records, joined by “and”; a condition that tells them apart may be missing. Equal values may be shown once.", "data": [{"molecule": "Nb16-SZU-101: PD-L1 and TLR7 dual-targeting nanobody coupling drug, Nb16 coupled with SZU-101-NHS active ester (conjugate, left off: a dimerising Fc or GST) QVQLQESGGGSVQAGGSLRLSCAASGYTDRNYWMGWFRQAPGKEREGVAALYTRTGSTYYADSVKGRFTISHDNAKNTLYLQMNSLKPEDTAVYYCAADSNAYGLAPLHHYWGQGTQVTVSS", "values": [{"measurement": "Effect of deletion of CD4+T cells and macrophages on efficacy", "setting": "[1]; anti-CD4 or chlorophosphate liposomes intraperitoneal", "value": "little influence on the efficacy"}, {"measurement": "Effect of deletion of CD8+T cells and NK cells on efficacy", "setting": "[1]; anti-CD8 or anti-NK1.1 intraperitoneal", "value": "greatly affects the efficacy"}, {"measurement": "Expression of granzyme B and IFN-γ in tumor-infiltrating cytotoxic cells", "setting": "[2]", "value": "promote the expression"}, {"measurement": "Function of tumor-infiltrating cytotoxic cells (CD8+T cells and NK cells)", "setting": "[2]", "value": "significantly increases"}, {"measurement": "Infiltration of IFN-γ+CD4+T cells", "setting": "[2]", "value": "significantly increased"}, {"measurement": "Infiltration of TGF-β+macrophages", "setting": "[2]", "value": "reduce the infiltration"}, {"measurement": "Macrophage expression of PD-L1 in tumor microenvironment", "setting": "[2]", "value": "promotes macrophage expression of PD-L1"}, {"measurement": "Re-polarization of tumor-associated macrophages", "setting": "[2]", "value": "promote the re-polarization"}, {"measurement": "Maturation of dendritic cells", "setting": "[2]; tumors of example 8.1", "value": "promotes maturation of dendritic cells"}, {"measurement": "Tumor inhibition rate", "setting": "B16-F10 cells", "value": "about 68.2%"}, {"measurement": "Tumor inhibitory rate", "setting": "[3]; Day 14, 4 doses", "value": 81, "unit": "%"}, {"measurement": "Anti-tumor effect", "setting": "[3]", "value": "significantly improved anti-tumor effect"}, {"measurement": "Endpoint tumor Weight", "setting": "[3]; individual mice, Day 14, 4 doses", "value": "0.191 g and 0.146 g and 0.155 g and 0.084 g and 0.012 g and 0.087 g"}, {"measurement": "Lifetime (survival)", "setting": "[4]", "value": "significantly prolong the lifetime"}, {"measurement": "Tumor growth inhibition rate", "setting": "[4]; 10 mg/kg abdominal administration, 4 doses", "value": 78.9, "unit": "%"}, {"measurement": "Tumor-bearing mice with tumor regression", "setting": "[4]; 10 mg/kg, 4 doses", "value": 12.5, "unit": "%"}]}]}
